Reference: publication PMC9584909, “Atomic resolution protein allostery from the multi-state structure of a PDZ domain” (Nature Communications, 2022)

Biological target: T1, PDZ2 domain of human tyrosine phosphatase 1E (hPTP1E) (human, UniProt Q12923 1361-1456)
T1 construct: PDZ2 domain of human tyrosine phosphatase 1E (hPTP1E); Uniformly 15N- or 15N,13C-enriched for NMR; also called apo PDZ2; holo PDZ2; source: E. coli BL21 (DE3), purified (Ni-NTA, tag cleaved with HRV-3C protease, second Ni-NTA pass); not shown: polyhistidine, N-terminal, cleaved
T1 sequence: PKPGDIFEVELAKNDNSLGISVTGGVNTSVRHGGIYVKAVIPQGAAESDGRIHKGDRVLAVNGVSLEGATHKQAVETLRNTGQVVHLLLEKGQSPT
Assay: NMR titration; [1H,15N]-HSQC of uniformly 15N-enriched PDZ2, free and with the peptide in twofold excess; 298 K; 150 mM sodium chloride, 50 mM phosphate buffer pH 6.8; chemical shift perturbation
Details: both partners purified

B1: C-terminal eight-residue peptide derived from the Ras-associated guanine nucleotide exchange factor 2 (RA-GEF2) (peptide)
peptide: Ac-ENEQVSAV-OH
notes: the eight C-terminal residues of Ras-associated / Rap guanine nucleotide exchange factor 2 (RA-GEF2); also called RA-GEF2 peptide; source: synthetic peptide, bought: BACHEM
Q: Does B1 bind?
A: binds
